The record followed here is patent publication US20110206660A1 (Ablynx, published 2011).

Assay [1] addresses T1, human CXCR4 (human, UniProt P61073-2 2-356). Briefly: competition binding vs [125I]-238D4, HEK293T-CXCR4 membranes.
Assay [2] has as its target T1, human CXCR4. Description: competition binding vs [125I]-238D2, HEK293T-CXCR4 membranes.
In assay [3] the target is T1, human CXCR4. Description: competition binding vs [125I]-CXCL12, HEK293T-CXCR4 membranes.
In assay [4] the target is T2, CXCR3 (UniProt P49682 1-368).
T2 construct: whole, on cells; also called chemokine receptor CXCR3
T2 sequence (looked up): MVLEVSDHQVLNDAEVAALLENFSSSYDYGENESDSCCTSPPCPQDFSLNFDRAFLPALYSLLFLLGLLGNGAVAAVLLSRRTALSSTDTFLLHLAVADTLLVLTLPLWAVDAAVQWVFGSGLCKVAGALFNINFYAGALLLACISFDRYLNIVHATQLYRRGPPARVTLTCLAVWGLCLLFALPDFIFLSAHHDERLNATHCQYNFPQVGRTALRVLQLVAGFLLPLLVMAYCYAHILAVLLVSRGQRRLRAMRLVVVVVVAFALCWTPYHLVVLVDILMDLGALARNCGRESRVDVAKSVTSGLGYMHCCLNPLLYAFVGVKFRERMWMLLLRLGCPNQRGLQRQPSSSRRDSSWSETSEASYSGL
Briefly: total binding of [125I]-238D2 to membranes of HEK293T cells expressing CXCR4 or CXCR3, without (-) and with 3 µM AMD3100.

The target of assay [5] is T1, human CXCR4. Description: competition with [125I]-238D2, membranes of HEK293T cells expressing CXCR4.
In assay [6] the target is T1, human CXCR4. Description: competition with [125I]-CXCL12, membranes of HEK293T cells expressing CXCR4.
The target in assay [7] is T2, CXCR3. Briefly: total binding of [125I]-238D4 to membranes of HEK293T cells expressing CXCR4 or CXCR3, without (-) and with 3 µM AMD3100.
The target in assay [8] is constitutively active CXCR4 mutant N119A (UniProt P61073 1-352). Briefly: cell-based or functional assay.
constitutively active CXCR4 mutant N119A, sequence (P61073 whole entry N119A): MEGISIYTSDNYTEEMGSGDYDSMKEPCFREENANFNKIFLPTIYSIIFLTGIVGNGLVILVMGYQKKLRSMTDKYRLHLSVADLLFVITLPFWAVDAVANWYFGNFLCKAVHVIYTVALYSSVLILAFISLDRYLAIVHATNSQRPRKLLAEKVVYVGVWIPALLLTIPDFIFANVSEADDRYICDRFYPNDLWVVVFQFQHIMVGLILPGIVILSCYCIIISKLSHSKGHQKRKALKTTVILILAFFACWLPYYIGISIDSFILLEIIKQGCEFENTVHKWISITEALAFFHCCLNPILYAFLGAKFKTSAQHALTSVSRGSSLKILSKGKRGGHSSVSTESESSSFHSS
Assay [9] concerns the target T1, human CXCR4. Briefly: competition with [125I]-238D4, membranes of HEK293T cells expressing CXCR4.
For assay [10], the target named is T1, human CXCR4. Description: cell-based or functional assay.
For assay [11], the target named is T1, human CXCR4. Description: cell-based or functional assay. This is another data set of the same source.
Assay [12] deals with T1, human CXCR4. Briefly: competition binding vs [125I]-CXCL12, HEK293T-CXCR4 membranes.
Assay [13] deals with T1, human CXCR4. Description: competition binding vs [125I]-238D2, HEK293T-CXCR4 membranes; purified Nanobody up to 0.5 µM, tracer [125I]-238D2.
Assay [14] concerns the target T1, human CXCR4. Description: competition binding vs [125I]-CXCL12, HEK293T-CXCR4 membranes; purified Nanobody up to 0.5 µM, tracer [125I]-CXCL12.
In assay [15] the target is T1, human CXCR4. Description: periplasm fraction (1:10), inhibition of [125I]-CXCL12 binding, HEK293T-CXCR4 membranes; - = 0-29%, + = 30-69%, ++ = 70-100%; periplasma fraction in the clone screen, tracer [125I]-CXCL12; 30-69% inhibition.
Assay [16] deals with T1, human CXCR4. Briefly: competition binding vs [125I]-238D4, HEK293T-CXCR4 membranes; purified Nanobody up to 0.5 µM, tracer [125I]-238D4.
Assay [17] concerns the target T1, human CXCR4. Briefly: competition binding vs [125I]-CXCL12, HEK293T-CXCR4 membranes. The source holds these as a separate data set.

Bounds are passed on as bounds.

T1 sequence (P61073 other isoform, or with tags, fused parts or gaps): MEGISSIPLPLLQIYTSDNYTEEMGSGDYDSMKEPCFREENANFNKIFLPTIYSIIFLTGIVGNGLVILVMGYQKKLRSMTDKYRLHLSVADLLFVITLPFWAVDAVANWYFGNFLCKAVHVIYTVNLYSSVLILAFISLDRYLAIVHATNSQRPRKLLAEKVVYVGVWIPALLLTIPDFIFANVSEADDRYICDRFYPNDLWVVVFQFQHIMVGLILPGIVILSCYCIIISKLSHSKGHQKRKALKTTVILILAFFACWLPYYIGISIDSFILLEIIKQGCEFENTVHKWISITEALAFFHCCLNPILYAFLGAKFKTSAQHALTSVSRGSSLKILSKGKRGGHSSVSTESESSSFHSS

As to monoclonal antibody 12G5, the results for the maximal displacement in the assay with human CXCR4 [1], with human CXCR4 [2] and with human CXCR4 [3] were 90%, 89% and 54%, respectively. Besides, the results for the pKi with human CXCR4 [1], with human CXCR4 [2] and with human CXCR4 [3] were 9.31, 9.65 and 9.19, respectively.

B1: Nanobody 238D2 (VHH)
VHH: EVQLVESGGGLVQTGGSLRLSCAASGFTFSSYAMSWVRQAPGKGLEWVSGIKSSGDSTRYAGSVKGRFTISRDNAKNMLYLQMYSLKPEDTAVYYCAKSRVSRTGLYTYDNRGQGTQVTVSS
notes: Monovalent llama VHH; Tested as phage, as periplasm fraction and purified; also called 238C1; 238C1, D2
For the molecule B1, in the assay with CXCR3 [4], the binding result is listed as “no binding (tested: 3 nM)”.

B2: Nanobody 238D4 (VHH)
VHH: EVQLMESGGGLVQAGGSLRLSCAASGRTFNNYAMGWFRRAPGKEREFVAAITRSGVRSGVSAIYGDSVKDRFTISRDNAKNTLYLQMNSLKPEDTAVYTCAASAIGSGALRRFEYDYSGQGTQVTVSS
notes: Monovalent llama VHH; also called 238G3; 238D4, G3
Turning to B2, the “IC50 (read off the curve)” value in the assay with human CXCR4 [5] is ~3 nM; with human CXCR4 [6], ~10 nM; with human CXCR4 [9], ~4 nM. The values for the pKi with human CXCR4 [1], in the assay with human CXCR4 [2] and in the assay with human CXCR4 [12] were 8.55, 8.8 and 8.22, respectively. Further, in the assay with CXCR3 [7], the binding result is on record as “no binding (tested: 3 nM)”. Moreover, the “reduction of the constitutively increased basal inositol phosphate accumulation, HEK293T-CXCR4 (N119A)” value in assay [8] worked out at 49%. In addition, the “migration of Jurkat cells towards 0.3 nM CXCL12 (ChemoTx): IC50 (read off the curve)” value in the assay with human CXCR4 [10] is ~8 nM. The “CRE activation, HEK293T-CXCR4-CREbgal/0.01-100 nM CXCL12: pKi or pIC50 (pKB from the Schild plot by the text)” value in the assay with human CXCR4 [11] was determined as 7.7. Besides, in the assay with human CXCR4 [11], the “Chemotaxis, Jurkat/0.3 nM CXCL12: pKi or pIC50” value was 8.31. For the same molecule, the “IP accumulation, HEK293T-CXCR4-Gαqi5/30 nM CXCL12: pKi or pIC50” value with human CXCR4 [11] is 8.39. For the same molecule, in the assay with human CXCR4 [12], the maximal displacement stood at 99%.

B3: Nanobody 237G7 (VHH)
VHH: EVQLVESGGGLVQPGGSLRLSCAASSFIGNYHAIVWLRQAPGKELEGVSCITSRDSITYYASFVKGRFTISRDDAKNTVYLQMNNLKPEDTAVYYCAVBTSMTCPTLIVRFNYRGQGTQVTVSS
notes: Monovalent VHH
With B3, the pKi in the assay with human CXCR4 [13], with human CXCR4 [14] and in the assay with human CXCR4 [16] was < 6.3 each time. Moreover, the “percent inhibition of specific [125I]-CXCL12 binding” value (from here on “percent inhibition of specific”) in the assay with human CXCR4 [15] lay within 30 to 69%.

B4: Nanobody 238C5 (VHH)
VHH: EVQLMESGGGLVQAGGSLRLACAASGFTFEDYAIGWFRKAPGKEREGVSCISGSDGSTTYADSVKGRFTISTDNAKNTVYLEMNSLKPEDTAVYYCAQQYGVGGRVVCPGPYEYDVWGQGTQVTVSS
notes: Monovalent VHH; also called 238C5, G2, xH5, 238C3, D6, E6
As to B4, the pKi (as a rule, the negative decadic logarithm of the Ki, by convention in mol/L) in the assay with human CXCR4 [1] is < 7; with human CXCR4 [2] it was < 7; with human CXCR4 [12], < 6.3. The maximal displacement with human CXCR4 [12] is 0%.

B5: Nanobody 237D2 (VHH)
VHH: EVQLVESGGGLVQPGGSLRLSCAASGFTFDDYAMSWVRQAPGKGLEWVSAISWNGGSTDYADSVKGRFTISRDNAKNTLYLQMNSLKSEDTAEYYCARDQGPFYSGTYYYTRQYGYRGQGTQVTVSS
notes: Monovalent VHH; also called 237B6, A5, D2, D3, E4, F4, G2, G4, xH5, 237F1, C5, G1
As for B5, the pKi with human CXCR4 [13], in the assay with human CXCR4 [14] and with human CXCR4 [16] was < 6.3 in each case.

B6: Nanobody 237D1 (VHH)
VHH: EVQLVESGGGLAQPGGPLRLTCEASGVIYSVNDMGWYRQAPGKQRELVAVITSGGGTNYVDSVKGRFTISGDNRKKTVYLQMNSLKPEDTAVYYCSIYYSSGISTLRSWGQGTQVTVSS
notes: Monovalent VHH
Take B6: the pKi with human CXCR4 [13], in the assay with human CXCR4 [14] and with human CXCR4 [16] was < 6.3 throughout. For the same molecule, in the assay with human CXCR4 [15], the “percent inhibition of specific” value lay within 30 to 69%.

B7: 238D4-20GS-238D4 (VHH)
chain: EVQLMESGGGLVQAGGSLRLSCAASGRTFNNYAMGWFRRAPGKEREFVAAITRSGVRSGVSAIYGDSVKDRFTISRDNAKNTLYLQMNSLKPEDTAVYTCAASAIGSGALRRFEYDYSGQGTQVTVSSGGGGSGGGGSGGGGSGGGGSEVQLMESGGGLVQAGGSLRLSCAASGRTFNNYAMGWFRRAPGKEREFVAAITRSGVRSGVSAIYGDSVKDRFTISRDNAKNTLYLQMNSLKPEDTAVYTCAASAIGSGALRRFEYDYSGQGTQVTVSS
notes: Bivalent Nanobody, 20-residue GS linker; also called L13
B7: in the assay with human CXCR4 [17], the “Rel. potency (relative to monovalent 238D4)” value was determined as 4.4 fold and the pKi stood at 8.85.

B8: 238D2-15GS-238D4 (VHH)
chain: EVQLVESGGGLVQTGGSLRLSCAASGFTFSSYAMSWVRQAPGKGLEWVSGIKSSGDSTRYAGSVKGRFTISRDNAKNMLYLQMYSLKPEDTAVYYCAKSRVSRTGLYTYDNRGQGTQVTVSSGGGGSGGGGSGGGGSEVQLMESGGGLVQAGGSLRLSCAASGRTFNNYAMGWFRRAPGKEREFVAAITRSGVRSGVSAIYGDSVKDRFTISRDNAKNTLYLQMNSLKPEDTAVYTCAASAIGSGALRRFEYDYSGQGTQVTVSS
In the case of B8, the “reduction of the constitutively increased basal inositol phosphate accumulation, HEK293T-CXCR4 (N119A)” value in [8] stood at 64%.

B9: Nanobody 237A6 (VHH)
VHH: EVQLVESGGGLVQAGGSLRLSCAASGSIFSLNAMGWYRQAPGKQRELVAGITSSTSTYYADSVKGRFTISRDNTKNTVYLQMNSLKPEDTAVYYCNVDCPDYYSDYECPLEDRGQGTQVTVSS
notes: Monovalent VHH
Take B9: the negative-log Ki (pKi) with human CXCR4 [13], with human CXCR4 [14] and in the assay with human CXCR4 [16] was < 6.3 in each case. In the assay with human CXCR4 [15], the “percent inhibition of specific” value was 30 to 69%.

B10: 238D2-20GS-238D4 (VHH)
chain: EVQLVESGGGLVQTGGSLRLSCAASGFTFSSYAMSWVRQAPGKGLEWVSGIKSSGDSTRYAGSVKGRFTISRDNAKNMLYLQMYSLKPEDTAVYYCAKSRVSRTGLYTYDNRGQGTQVTVSSGGGGSGGGGSGGGGSGGGGSEVQLMESGGGLVQAGGSLRLSCAASGRTFNNYAMGWFRRAPGKEREFVAAITRSGVRSGVSAIYGDSVKDRFTISRDNAKNTLYLQMNSLKPEDTAVYTCAASAIGSGALRRFEYDYSGQGTQVTVSS
Consider B10, for which the “reduction of the constitutively increased basal inositol phosphate accumulation, HEK293T-CXCR4 (N119A)” value in assay [8] amounted to 65%.
